Test [1] addresses rabbit pulmonal angiotensin converting enzyme (Sigma) (rabbit) (UniProt P12822). The experiment in a line: cell-based or functional assay.
In test [2] the target is T1, rabbit pulmonal angiotensin converting enzyme (Sigma) (rabbit, UniProt P12822 34-1310, limits assumed).
T1 sequence (looked up): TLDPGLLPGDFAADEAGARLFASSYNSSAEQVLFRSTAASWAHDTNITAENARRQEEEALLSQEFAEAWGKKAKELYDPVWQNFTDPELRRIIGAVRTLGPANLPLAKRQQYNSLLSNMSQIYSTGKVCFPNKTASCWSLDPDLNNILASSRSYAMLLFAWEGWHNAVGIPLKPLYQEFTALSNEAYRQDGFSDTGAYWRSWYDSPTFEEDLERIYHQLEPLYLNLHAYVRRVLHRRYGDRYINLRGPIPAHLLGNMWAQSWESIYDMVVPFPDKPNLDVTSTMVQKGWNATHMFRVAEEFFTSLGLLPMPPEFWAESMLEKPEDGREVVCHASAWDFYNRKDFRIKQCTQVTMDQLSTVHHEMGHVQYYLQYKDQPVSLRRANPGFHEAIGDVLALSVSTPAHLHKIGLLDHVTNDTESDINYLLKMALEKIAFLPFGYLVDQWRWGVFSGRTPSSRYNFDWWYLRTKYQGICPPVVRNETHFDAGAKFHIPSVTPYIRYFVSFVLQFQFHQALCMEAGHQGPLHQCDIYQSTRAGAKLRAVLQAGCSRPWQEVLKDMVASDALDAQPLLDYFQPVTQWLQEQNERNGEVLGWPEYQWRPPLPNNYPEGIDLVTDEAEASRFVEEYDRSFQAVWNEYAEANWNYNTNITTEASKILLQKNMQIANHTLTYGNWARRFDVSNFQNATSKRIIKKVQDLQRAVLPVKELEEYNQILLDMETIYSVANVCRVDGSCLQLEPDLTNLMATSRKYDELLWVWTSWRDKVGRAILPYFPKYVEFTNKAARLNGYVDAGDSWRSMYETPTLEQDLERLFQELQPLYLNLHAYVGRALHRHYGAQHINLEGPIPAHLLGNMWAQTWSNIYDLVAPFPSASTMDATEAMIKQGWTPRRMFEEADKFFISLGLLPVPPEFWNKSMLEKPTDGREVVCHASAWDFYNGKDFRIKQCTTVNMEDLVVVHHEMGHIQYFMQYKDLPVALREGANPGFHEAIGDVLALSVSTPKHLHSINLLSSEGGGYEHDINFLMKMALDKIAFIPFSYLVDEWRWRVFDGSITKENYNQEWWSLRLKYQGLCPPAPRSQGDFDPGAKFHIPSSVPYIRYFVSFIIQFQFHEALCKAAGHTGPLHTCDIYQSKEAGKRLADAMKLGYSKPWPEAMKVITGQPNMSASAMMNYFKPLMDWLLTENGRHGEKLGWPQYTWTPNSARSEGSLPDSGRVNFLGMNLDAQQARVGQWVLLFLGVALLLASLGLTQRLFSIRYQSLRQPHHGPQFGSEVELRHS
Kind of test: cell-based or functional assay.

The molecule “soybean protein hydrolysates prepared with protease D3” gave an IC50 value, the concentration for 50% inhibition against ACE in test [1] of 180 µg/mL.
For Bradykinin potentiator C (peptide), the IC50 (µM), inhibition of angiotensin converting enzyme activity (colorimetry at 505 nm, substrate p-hydroxyl benzoyl glycyl-L-histidyl-L-leucine) in test [1] came out at 35 µM.
In the case of NWGPLV [Asn-Trp-Gly-Pro-Leu-Val], in test [2], the “IC50 (µM), inhibition of angiotensin converting enzyme activity (colorimetry at 505 nm, substrate p-hydroxyl benzoyl glycyl-L-histidyl-L-leucine)” value turned out to be 21 µM.
For PNNKPFQ [Pro-Asn-Asn-Lys-Pro-Phe-Gln], the “IC50 (µM), inhibition of angiotensin converting enzyme activity (colorimetry at 505 nm, substrate p-hydroxyl benzoyl glycyl-L-histidyl-L-leucine)” value in test [2] amounted to 33 µM.
For IPPGVPYWT [Ile-Pro-Pro-Gly-Val-Pro-Tyr-Trp-Thr], in test [2], the “IC50 (µM), inhibition of angiotensin converting enzyme activity (colorimetry at 505 nm, substrate p-hydroxyl benzoyl glycyl-L-histidyl-L-leucine)” value is 64 µM.

(Values after US20040014670A1 (AJINOMOTO, published 2004).)
